± gives the half width of the 95% confidence interval.
Experiments:
[1] = folding stability dG unfold (combined trypsin and chymotrypsin); higher = more stable
How it was run: (§1)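 K50 was inferred by Bayesian fitting of sequencing counts obtained after protease digestion of designed mini-proteins. Unfolding free energy was derived by comparison with a sequence-predicted unfolded-state K50 and a shared folded-state K50, for each protease or both combined. The mini-proteins were under 80 residues, had no cysteine, were carried in a PA-tagged cDNA display construct, and were kept only if AlphaFold2 dimer inter-PAE exceeded 15.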

[2] = folding stability dG unfold from trypsin proteolysis; higher = more stable
How it was run: as §1

[3] = folding stability dG unfold from chymotrypsin proteolysis; higher = more stable
How it was run: as §1

Sequence	folding stability dG unfold [1]	folding stability dG unfold [2]	folding stability dG unfold [3]
SAGGSAGGSEKTLVTRTPDGYLLTLTEFTLPDGSKVTLATITFPNTGKTVTVPASLVPADATGSAGGSAGGS [r12_797_TrMRF]	2.63 ± 0.041 kcal/mol	1.45 ± 0.028 kcal/mol	3.061 ± 0.011 kcal/mol
SAGGSAGGSELPDGPALVVLPINSKPVVALAKVNSTGKIEVYIPNPGKKFTFDLDQAEVYPVLSAGGSAGGS [r12_782_TrMRF]	0.35 ± 0.061 kcal/mol	-0.1 ± 0.082 kcal/mol	0.533 ± 0.1 kcal/mol
SAGGSAGGSEVEITVTETEDTVTVTIRFKDTGKTVTITVPKDMTPEEVLARAKELLKKLGIEPSAGGSAGGS [r12_764_TrROS_Hall]	3.88 ± 0.25 kcal/mol	3.91 ± 0.18 kcal/mol	3.75 ± 0.16 kcal/mol
SAGGSAGGSEVKTKVTLKREDPGSASTSTVDLPKEEAEKLIKEGKEIKLPSGKKASFTKVVPESAGGSAGGS [r12_432_JUSTAS]	-0.148 ± 0.2 kcal/mol	-0.195 ± 0.11 kcal/mol	-0.18 ± 0.24 kcal/mol
SAGGSAGGSEYYIYIQIDKNGKIEIVDVVPPGEPMEDMPPEQYDHTIMFPFESPEDALAEILKSAGGSAGGS [r12_452_TrROS]	0.719 ± 0.075 kcal/mol	0.606 ± 0.019 kcal/mol	0.731 ± 0.022 kcal/mol
SAGGSAGGSFKVPGGYKVVSVEEDPENKTVEITFADGSKLTIDIEDPNVFKPVKVEAPEGFDVSAGGSAGGS [r12_149_TrMRF]	1.89 ± 0.054 kcal/mol	1.55 ± 0.081 kcal/mol	2.04 ± 0.038 kcal/mol
SAGGSAGGSGAEEIAKALKELGVKKVEITVERNENGELTVTVRVEVEAPPPKVEVKTEEELKKSAGGSAGGS [r12_246_TrROS_Hall]	0.939 ± 0.21 kcal/mol	0.527 ± 0.1 kcal/mol	1.01 ± 0.14 kcal/mol
SAGGSAGGSGDGDYKNDPNGEQERKPKPPPVPPILVFKVELDIDANGNLDLSPDLGWFPPDAISAGGSAGGS [r12_1027_TrROS]	1.42 ± 0.14 kcal/mol	1.55 ± 0.13 kcal/mol	1.03 ± 0.093 kcal/mol
SAGGSAGGSGDSITLPVSVPKGSELVIENLSTNKKVIIPDDGPVTITIDKGKDGLKISAEVEKSAGGSAGGS [r12_919_TrMRF]	-0.0498 ± 0.25 kcal/mol	-0.398 ± 0.16 kcal/mol	0.106 ± 0.053 kcal/mol
SAGGSAGGSGEVLLLSANSFSFSEGDGLLVVVNLPNGGYVVLPFKKGDLNLNLPSSGYSEFFGSAGGSAGGS [r12_746_TrMRF]	1.59 ± 0.058 kcal/mol	1.3 ± 0.034 kcal/mol	1.79 ± 0.046 kcal/mol
SAGGSAGGSGFPVRLKIWDPDETYTYTVPMDPDNVQKFAEELGEKNFNIETEPNGWATITIPKSAGGSAGGS [r12_292_TrROS]	0.713 ± 0.22 kcal/mol	0.471 ± 0.08 kcal/mol	0.95 ± 0.15 kcal/mol
SAGGSAGGSGGKPLLIFTAMNGPEAEELVKKLLEEGGAGPIVAVVIPAPKDDPLFKEFFEKLKSAGGSAGGS [r12_649_TrMRF]	1.34 ± 0.14 kcal/mol	0.935 ± 0.073 kcal/mol	1.47 ± 0.053 kcal/mol
SAGGSAGGSGGMMPVTLTITPVNPPGASTSSTTIPVNFTSPEEAAAAKEKIAAELPSNATVTGSAGGSAGGS [r20_211_JUSTAS]	0.0375 ± 0.072 kcal/mol	0.442 ± 0.0095 kcal/mol	-1.1 ± 0.4 kcal/mol
SAGGSAGGSGIPVEPIPVRNPKGEIVEVIRFPEDFALVVFPSGERALLRGPELSLRDVVFFPLSAGGSAGGS [r12_491_TrMRF]	0.533 ± 0.055 kcal/mol	0.675 ± 0.023 kcal/mol	0.305 ± 0.054 kcal/mol
SAGGSAGGSGITPAAKKIAAEIEKKYPNEKIKVEEELLPNGYLKIKVTTDNGKKYEIIIKVGGSAGGSAGGS [r20_210_TrMRF]	3.23 ± 0.077 kcal/mol	2.51 ± 0.12 kcal/mol	3.51 ± 0.053 kcal/mol
SAGGSAGGSGMAVSVSVTPVRLPDGSVRLVISFSSGSTVVLDLPESEWTPEQVEALVAELVSASAGGSAGGS [r12_218_JUSTAS]	3.89 ± 0.058 kcal/mol	3.82 ± 0.077 kcal/mol	3.9 ± 0.048 kcal/mol
SAGGSAGGSGMSPEALAIKEQVKAEHPDLRVEVKEKILPNGTLEITVTFDDGTTETYTIPIGESAGGSAGGS [r20_210_JUSTAS]	3.29 ± 0.086 kcal/mol	3.01 ± 0.13 kcal/mol	3.36 ± 0.048 kcal/mol
SAGGSAGGSGMTAEEAREKKVAELKAQGYTPVKVEVVETRTDPATGKVTTKIKIEYKSPKGLTSAGGSAGGS [r20_46_JUSTAS]	0.275 ± 0.14 kcal/mol	0.0908 ± 0.081 kcal/mol	0.333 ± 0.12 kcal/mol
SAGGSAGGSGMTVVTLEAEPETAEEAVAAAIQAIRDALPADETIASVEVSFDPATGKVTVVVESAGGSAGGS [r12_308_JUSTAS]	1.8 ± 0.12 kcal/mol	0.757 ± 0.051 kcal/mol	2.01 ± 0.042 kcal/mol
SAGGSAGGSGMVEEEEYEDPATGVRTRTTTTYLPNGTVVRTPVVYTPDRPVEEVPTVTPIPSGSAGGSAGGS [r20_88_JUSTAS]	0.958 ± 0.21 kcal/mol	1.04 ± 0.075 kcal/mol	0.62 ± 0.13 kcal/mol
SAGGSAGGSGPELRPPDVPSTTVPLKVSPEEAKEILKELLGLPEDVEVPFGSIDPATGVITLVSAGGSAGGS [r12_815_JUSTAS]	1.03 ± 0.12 kcal/mol	1.25 ± 0.091 kcal/mol	0.881 ± 0.042 kcal/mol
SAGGSAGGSGPKPRLIKLTFLLEPGKVEEFAQALRDAGFEIVSVEVEPLPDGGERATVTVRIDSAGGSAGGS [r12_905_TrMRF]	3.56 ± 0.062 kcal/mol	2.81 ± 0.093 kcal/mol	3.82 ± 0.07 kcal/mol
SAGGSAGGSGPNIKVSSSTSTYTLPNGKKVTVKTIVIETENSKYLIVVLTDPNGKSIVFIKPLSAGGSAGGS [r12_213_TrMRF]	3.89 ± 0.28 kcal/mol	3.21 ± 0.23 kcal/mol	3.92 ± 0.15 kcal/mol
SAGGSAGGSGSLLEKLGLEPNSTVTVTVTPEEAEKIRAEPRVKEIKREPTPEDTYLYTITVVASAGGSAGGS [r12_750_JUSTAS]	-0.302 ± 0.28 kcal/mol	-0.705 ± 0.32 kcal/mol	0.0205 ± 0.2 kcal/mol
SAGGSAGGSGSMEFTIDDEDLRIEIKFLPGGKVEITIWDPTNNVPLKTIETEPEEIEEVIEKLSAGGSAGGS [r20_129_JUSTAS]	2.15 ± 0.082 kcal/mol	2.18 ± 0.17 kcal/mol	2.05 ± 0.048 kcal/mol
SAGGSAGGSGSMSIPVGSPEALREYLRERLPPEADLSEEELEALVEELLAKASIDSDGRLHLASAGGSAGGS [r12_983_JUSTAS]	2.05 ± 0.053 kcal/mol	1.65 ± 0.039 kcal/mol	2.207 ± 0.012 kcal/mol

Source: the supplement of paper PMC12764529
